Measured values: PMC9610207 (Viruses, 2022)
No end group written: not given here.

T1: MPP5 PDZ (amino acids 238–336) (human, UniProt Q8N3R9 238-336)
T1 sequence (looked up): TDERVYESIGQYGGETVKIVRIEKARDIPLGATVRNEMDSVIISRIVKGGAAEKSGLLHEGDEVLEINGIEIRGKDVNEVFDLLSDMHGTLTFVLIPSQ

B1: FITC-labeled peptide of the C-terminus of the SARS-CoV-2 E protein (E66-77) (peptide)
peptide: NSSRVPDLLV
modifications: also: FITC-labeled
notes: also called peptide from the E protein
B2: FITC-labeled peptide of the C-terminus of SARS-CoV-2 ORF3a (ORF3A 266-275) (peptide)
peptide: EPTTTTSVPL
modifications: also: FITC-labeled

What was measured:
[1] = molecular target: SNX27 PDZ (amino acids 740–141) (human, UniProt Q96L92 43-136); assay: fluorescence polarisation; details: both partners purified
[2] = molecular target: T1, MPP5 PDZ (amino acids 238–336); assay: fluorescence polarisation; details: both partners purified

Row | Binder | Kd [1] | Kd [2]
1 | B1 | > 400 µM | 400 ± 55 µM
2 | B2 | > 400 µM | –
